Molecular target: complement factor H present in serum (human) (UniProt P08603)
Assay: cell-based or functional assay

UniProt P08603, sequence (P08603 19-1231 limits assumed): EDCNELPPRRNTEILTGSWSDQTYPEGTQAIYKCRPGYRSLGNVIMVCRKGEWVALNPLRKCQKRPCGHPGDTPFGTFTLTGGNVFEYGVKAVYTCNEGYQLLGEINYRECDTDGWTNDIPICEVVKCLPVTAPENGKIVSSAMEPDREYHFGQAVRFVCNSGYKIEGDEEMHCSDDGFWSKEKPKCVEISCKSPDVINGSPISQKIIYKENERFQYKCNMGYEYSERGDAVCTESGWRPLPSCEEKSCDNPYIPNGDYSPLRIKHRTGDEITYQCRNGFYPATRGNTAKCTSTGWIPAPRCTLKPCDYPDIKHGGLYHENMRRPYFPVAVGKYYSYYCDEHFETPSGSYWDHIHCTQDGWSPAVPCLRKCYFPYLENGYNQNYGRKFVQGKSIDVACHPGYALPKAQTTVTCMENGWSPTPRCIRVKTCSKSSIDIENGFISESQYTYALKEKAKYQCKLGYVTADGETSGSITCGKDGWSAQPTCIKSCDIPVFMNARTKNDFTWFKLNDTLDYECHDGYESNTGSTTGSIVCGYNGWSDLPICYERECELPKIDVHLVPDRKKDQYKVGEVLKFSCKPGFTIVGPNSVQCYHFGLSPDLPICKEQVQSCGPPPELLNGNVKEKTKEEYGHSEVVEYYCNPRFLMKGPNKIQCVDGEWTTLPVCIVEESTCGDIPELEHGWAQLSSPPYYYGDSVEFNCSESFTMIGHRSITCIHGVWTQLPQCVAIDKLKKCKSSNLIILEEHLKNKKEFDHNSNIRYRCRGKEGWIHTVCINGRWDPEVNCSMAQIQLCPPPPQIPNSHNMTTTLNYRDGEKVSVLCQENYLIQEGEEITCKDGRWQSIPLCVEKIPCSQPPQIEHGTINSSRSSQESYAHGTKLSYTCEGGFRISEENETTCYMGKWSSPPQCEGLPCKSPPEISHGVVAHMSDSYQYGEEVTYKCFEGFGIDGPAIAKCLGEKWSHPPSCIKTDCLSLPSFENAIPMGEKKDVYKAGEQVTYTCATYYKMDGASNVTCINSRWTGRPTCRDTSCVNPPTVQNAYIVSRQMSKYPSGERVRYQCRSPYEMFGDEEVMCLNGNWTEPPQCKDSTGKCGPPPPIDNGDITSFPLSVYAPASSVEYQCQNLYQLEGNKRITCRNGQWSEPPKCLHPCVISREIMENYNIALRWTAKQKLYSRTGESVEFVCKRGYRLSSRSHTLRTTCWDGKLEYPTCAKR

PspCN (residues 37-140 of pneumococcal surface protein C, PspC, of Streptococcus pneumoniae strain D39)
inhibition of acidified serum lysis of PNH-like (AET-treated) erythrocytes, IC50: 27 nM

— patent publication US20250170316A1
